{"source": "patent US20100068218A1", "binders": {"B1": {"name": "HBV core 137 epitope … (peptide)", "peptide": "LTFGRETVLEY", "modifications": "not checked"}, "B2": {"name": "HBV pol 580 epitope YSLNFMGY (peptide)", "peptide": "YSLNFMGY", "modifications": "not checked"}, "B3": {"name": "HBV env 332 epitope … (peptide)", "peptide": "RFSWLSLLVPF", "modifications": "not checked"}, "B4": {"name": "HBV core 101 epitope … (peptide)", "peptide": "LWFHISCLTF", "modifications": "not checked"}, "B5": {"name": "HBV pol 167 epitope … (peptide)", "peptide": "SFCGSPYSW", "modifications": "not checked"}, "B6": {"name": "HBV pol 639 epitope … (peptide)", "peptide": "GYPALMPLY", "modifications": "not checked"}}, "data": [{"target": "HLA-A*0101 (human)", "assay": "peptide-HLA binding inhibition assay", "units": {"IC50": "nM"}, "values": [{"binder": "B1", "IC50": 80}, {"binder": "B2", "IC50": 382}]}, {"target": "HLA-A*2402 (human)", "assay": "peptide-HLA binding inhibition assay", "units": {"IC50": "nM"}, "values": [{"binder": "B3", "IC50": 12}, {"binder": "B4", "IC50": 6.7}, {"binder": "B5", "IC50": 146}, {"binder": "B6", "IC50": 280}]}]}
